Measured values taken from PMC10036635, “FTD-tau S320F mutation stabilizes local structure and allosterically promotes amyloid motif-dependent aggregation” (Nature Communications, 2023).

B1: S320I tau peptide (295-330) (peptide, UniProt P10636-8 295-330, looked up)
peptide: Ac-DNIKHVPGGGSVQIVYKPVDLSKVTIKCGSLGNIHH-NH2
notes: numbers count on: 2N4R tau (P10636-8); source: synthetic peptide (Genscript, > 95% purity)
B2: S320F_(306-330) tau peptide (peptide, UniProt P10636-8 306-330, looked up)
peptide: Ac-VQIVYKPVDLSKVTFKCGSLGNIHH-NH2
notes: as for B1
B3: P301S_I328S_(295-330) tau peptide (peptide, UniProt P10636-8 295-330, looked up)
peptide: Ac-DNIKHVSGGGSVQIVYKPVDLSKVTSKCGSLGNSHH-NH2
notes: as for B1
B4: S320F_I328S_(295-330) tau peptide (peptide, UniProt P10636-8 295-330, looked up)
peptide: Ac-DNIKHVPGGGSVQIVYKPVDLSKVTFKCGSLGNSHH-NH2
notes: as for B1
B5: S320I_I328V tau peptide (295-330) (peptide, UniProt P10636-8 295-330, looked up)
peptide: Ac-DNIKHVPGGGSVQIVYKPVDLSKVTIKCGSLGNVHH-NH2
notes: as for B1
B6: S320F_(306-324) tau peptide (peptide, UniProt P10636-8 306-324, looked up)
peptide: Ac-VQIVYKPVDLSKVTFKCGS-NH2
notes: as for B1
B7: S320V tau peptide (295-330) (peptide, UniProt P10636-8 295-330, looked up)
peptide: Ac-DNIKHVPGGGSVQIVYKPVDLSKVTVKCGSLGNIHH-NH2
notes: as for B1
B8: S324F_(295-330) tau peptide (peptide, UniProt P10636-8 295-330, looked up)
peptide: Ac-DNIKHVPGGGSVQIVYKPVDLSKVTSKCGFLGNIHH-NH2
notes: as for B1
B9: S320F_(295-330) tau peptide (peptide, UniProt P10636-8 295-330, looked up)
peptide: Ac-DNIKHVPGGGSVQIVYKPVDLSKVTFKCGSLGNIHH-NH2
notes: as for B1
B10: S320F_(295-324) tau peptide (peptide, UniProt P10636-8 295-324, looked up)
peptide: DNIKHVPGGGSVQIVYKPVDLSKVTFKCGS
notes: numbers count on: 2N4R tau (P10636-8); probably synthesised, acetylated and amidated like the others
B11: L315S_S320F_(295-330) tau peptide (peptide, UniProt P10636-8 295-330, looked up)
peptide: Ac-DNIKHVPGGGSVQIVYKPVDSSKVTFKCGSLGNIHH-NH2
notes: as for B1
B12: WT_(295-330) tau peptide (peptide, UniProt P10636-8 295-330, looked up)
peptide: Ac-DNIKHVPGGGSVQIVYKPVDLSKVTSKCGSLGNIHH-NH2
notes: as for B1
B13: WT_(306-330) tau peptide (peptide, UniProt P10636-8 306-330, looked up)
peptide: Ac-VQIVYKPVDLSKVTSKCGSLGNIHH-NH2
notes: as for B1
B14: S320F_L325S_(295-330) tau peptide (peptide, UniProt P10636-8 295-330, looked up)
peptide: Ac-DNIKHVPGGGSVQIVYKPVDLSKVTFKCGSSGNIHH-NH2
notes: as for B1
B15: WT_(306-324) tau peptide (peptide, UniProt P10636-8 306-324, looked up)
peptide: Ac-VQIVYKPVDLSKVTSKCGS-NH2
notes: as for B1
B16: WT_(295-324) tau peptide (peptide, UniProt P10636-8 295-324, looked up)
peptide: DNIKHVPGGGSVQIVYKPVDLSKVTSKCGS
notes: as for B10
B17: P301S_(295-330) tau peptide (peptide, UniProt P10636-8 295-330, looked up)
peptide: Ac-DNIKHVSGGGSVQIVYKPVDLSKVTSKCGSLGNIHH-NH2
notes: as for B1

Target: the molecule itself
Assay: ThT fluorescence aggregation assay + negative-stain TEM; self-assembly of tau peptides at 200 µM; 1x PBS, 2 mM TCEP, pH 7, 25 µM ThT, 72 h; TEM of the endpoint

Row | Protein | binding result
1 | B1 | binds
2 | B2 | binds
3 | B3 | binds
4 | B4 | binds
5 | B5 | binds
6 | B6 | binds
7 | B7 | binds
8 | B8 | binds
9 | B9 | binds
10 | B10 | binds
11 | B11 | binds
12 | B12 | binds
13 | B13 | binds
14 | B14 | binds
15 | B15 | binds
16 | B16 | binds
17 | B17 | binds
